In patent US20180237496A1 (DENALI THERAPEUTICS, published 2018):
Residue numbers refer to the chain shown, from its start.

B1: Clone CH2C.6 (designed binder)
chain: PCPAPELLGGPSVFLFPPKPKDTLMISRTPEVTCVVVDPKMPPWEVKFNWYVDGVEVHNAKTKPREEEYYTYYRVVSVLTVLHQDWLNGKEYKCKVSNKALPAPIEKTISKAKGQPREPQVYTLPPSRDELTKNQVSLTCLVKGFYPSDIAVEWESNGQPENNYKTTPPVLDSDGSFFLYSKLTVDKSRWQQGNVFSCSVMHEALHNHYTQKSLSLSPGK
notes: modified human IgG1 Fc, phage display
B2: CH3C.18 Fc (expressed engineered human Fc) (designed binder)
chain: DKTHTCPPCPAPEAAGGPSVFLFPPKPKDTLYITREPEVTCVVVDVSHEDPEVKFNWYVDGVEVHNAKTKPREEQYNSTYRVVSVLTVLHQDWLNGKEYKCKVSNKALGAPIEKTISKAKGQPREPQVYTLPPSRDELTKNQVSLTCLVKGFYPSDIAVEWESLGHVWAVYKTTPPVLDSDGSFFLYSKLTVPKSTWQQGWVFSCSVMHEALHNHYTQKSLSLSPGK
notes: also called CH3C.18 Fc polypeptide
B3: CH3C.35 Fc (expressed engineered human Fc) (designed binder)
chain: B2 chain with L164Y, H166T, V167E, A169S, V170S, P193T, T196E, W201F
B4: Clone CH2A2.4 (designed binder)
chain: PCPAPELLGGPSVFLFPPKPKDTLMISRTPEVTCVVVDVSHEDPEVSFEWYVDGVPVRWEWQWPREEQYNSTYRVVSVLTVLHQDWLNGKEYKCKVSNKALPAPIEKTISKAKGQPREPQVYTLPPSRDELTKNQVSLTCLVKGFYPSDIAVEWESNGQPENNYKTTPPVLDSDGSFFLYSKLTVDKSRWQQGNVFSCSVMHEALHNHYTQKSLSLSPGK
notes: as for B1
B5: Clone CH2A2.1 (designed binder)
chain: B4 chain with S47E, E49I, P56D, W59Y, W63L
notes: as for B1
B6: Clone CH2A2.16 (designed binder)
chain: B4 chain with S47W, P56F, R58G, W59V, E60A, W61Y, Q62D, W63V
notes: as for B1
B7: Clone CH2A2.5 (designed binder)
chain: B4 chain with S47A, E49T, W63N
notes: as for B1

Tests used:
[1] = molecular target: T1, human transferrin receptor (TfR) ectodomain (ECD) (human, biotinylated where captured on streptavidin ; Biotinylated (NHS-biotin on amines, or BirA on the Avi-tag) where captured on streptavidin. It forms a homodimer, and the unique chain is given once.); experiment: ELISA, clone as Fc-Fab fusion, human TfR coated
T1 construct: made in HEK293; also called human TfR; huTfR; not shown: The C-terminal cleavable His- and Avi-tags

[2] = molecular target: T2, His-tagged permuted human TfR apical domain (TfR-AD) (human); experiment: size-exclusion chromatography of the mixed proteins
T2 construct: C-terminal His6; used for co-crystals (Expi293 or CHO); also called permuted TfR apical domain
T2 chain: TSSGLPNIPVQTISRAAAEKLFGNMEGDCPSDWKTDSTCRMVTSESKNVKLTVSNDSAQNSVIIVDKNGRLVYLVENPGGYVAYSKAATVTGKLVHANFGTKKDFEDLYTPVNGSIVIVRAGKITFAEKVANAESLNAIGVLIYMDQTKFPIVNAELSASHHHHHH

[3] = molecular target: T1, human transferrin receptor (TfR) …; experiment: phage ELISA, clone on phage, target coated on plate
Protocol: (§1) FIGS. 1A-1D show phage ELISA results for four CH2A2 clones.
(§2) ELISA plates were coated with target, typically at […] overnight, then blocked with 1% BSA before addition of phage or periplasmic extracts. […] The plates were washed again, and then developed with TMB reagent and quenched with 2N sulfuric acid. […] Absorbance signal for tested clones was compared to negative control (phage or paraplasmic extract lacking Fc).
Target sequence in this assay (chain, as listed by the source limits assumed, form in doubt): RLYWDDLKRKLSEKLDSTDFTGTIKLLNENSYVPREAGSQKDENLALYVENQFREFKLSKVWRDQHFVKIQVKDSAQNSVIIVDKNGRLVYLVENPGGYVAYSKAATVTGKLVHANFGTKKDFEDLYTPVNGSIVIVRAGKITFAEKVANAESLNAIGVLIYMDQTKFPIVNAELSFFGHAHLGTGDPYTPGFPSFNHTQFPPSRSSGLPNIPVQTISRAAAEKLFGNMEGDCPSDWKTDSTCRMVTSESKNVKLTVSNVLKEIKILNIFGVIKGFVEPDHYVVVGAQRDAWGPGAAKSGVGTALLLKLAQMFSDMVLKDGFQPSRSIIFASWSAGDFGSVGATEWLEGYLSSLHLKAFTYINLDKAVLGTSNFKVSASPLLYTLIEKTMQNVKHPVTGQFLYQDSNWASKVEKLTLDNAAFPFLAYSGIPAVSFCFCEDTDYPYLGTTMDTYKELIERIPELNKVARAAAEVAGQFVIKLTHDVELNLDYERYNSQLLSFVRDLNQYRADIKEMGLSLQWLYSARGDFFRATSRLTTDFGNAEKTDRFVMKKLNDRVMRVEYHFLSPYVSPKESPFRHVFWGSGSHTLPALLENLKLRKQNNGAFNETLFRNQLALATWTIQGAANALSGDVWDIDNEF

[4] = molecular target: T3, cynomolgus (cyno) transferrin receptor (TfR) ectodomain (ECD) (cynomolgus (cyno), biotinylated where captured on streptavidin ; biotinylated (sulfo-NHS-LC-biotin on amines or BirA on the Avi-tag) where captured on streptavidin); experiment: as above
T3 construct: made in HEK293; also called cyno TfR; cynoTfR; not shown: C-terminal cleavable His- and Avi-tags with their cleavage site
T3 chain: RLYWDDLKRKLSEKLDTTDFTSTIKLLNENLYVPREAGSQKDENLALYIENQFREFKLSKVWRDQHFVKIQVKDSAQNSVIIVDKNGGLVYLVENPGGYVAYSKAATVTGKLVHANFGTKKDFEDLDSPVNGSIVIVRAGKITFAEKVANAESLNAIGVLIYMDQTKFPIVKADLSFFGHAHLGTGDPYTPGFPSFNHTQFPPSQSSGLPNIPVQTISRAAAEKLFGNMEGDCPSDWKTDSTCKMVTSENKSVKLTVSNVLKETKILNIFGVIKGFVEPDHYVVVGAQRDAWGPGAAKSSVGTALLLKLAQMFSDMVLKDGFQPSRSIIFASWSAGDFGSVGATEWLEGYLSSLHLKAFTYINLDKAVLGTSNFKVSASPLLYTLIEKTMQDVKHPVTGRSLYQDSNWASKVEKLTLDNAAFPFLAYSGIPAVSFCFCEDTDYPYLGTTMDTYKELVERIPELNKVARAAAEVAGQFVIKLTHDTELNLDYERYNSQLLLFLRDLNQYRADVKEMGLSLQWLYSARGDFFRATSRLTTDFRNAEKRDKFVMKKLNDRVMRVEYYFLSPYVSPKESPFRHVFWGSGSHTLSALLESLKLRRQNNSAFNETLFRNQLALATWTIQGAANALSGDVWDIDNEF
Protocol: as §1, §2

Row | Binder | EC50 (read off the curve) [1] | binding result [2] | EC50 (read off the curve) [3] | EC50 (read off the curve) [4]
1 | B1 | ~2 nM |  |  | 
2 | B2 |  | binds |  | 
3 | B3 |  | binds |  | 
4 | B4 |  |  | ~0.02 OD268 (phage solution) | ~0.02 OD268 (phage solution)
5 | B5 |  |  | ~0.03 OD268 (phage solution) | ~0.04 OD268 (phage solution)
6 | B6 |  |  | ~0.04 OD268 (phage solution) | 
7 | B7 |  |  | ~0.008 OD268 (phage solution) | ~0.01 OD268 (phage solution)
